Results as given in EP0636174B1, “HYALURONAN RECEPTOR (RHAMM = RECEPTOR FOR HYLURONAN MEDIATED MOBILITY) AND HYALURONAN BINDING PEPTIDES” (UNIVERSITY OF MANITOBA, priority 1992, dated 1993).

How the values were obtained:
GST-RHAMM fusion protein = biological target: T1, GST-RHAMM fusion protein (Mus musculus, UniProt Q00547); test: Competition by peptides with binding of biotin-labelled HA to transblotted GST-RHAMM fusion protein; conditions: biotin-labelled HA pre-incubated for 1 h with 3 mg/ml peptide; Figure 13A
T1 construct: A complete RHAMM cDNA (1.43 kb) was expressed as a fusion protein with pGEX-2T in E. coli HB101; made in house; host or cells: E. coli HB101 (pGEX-2T)
T1 sequence (Q00547 319-794): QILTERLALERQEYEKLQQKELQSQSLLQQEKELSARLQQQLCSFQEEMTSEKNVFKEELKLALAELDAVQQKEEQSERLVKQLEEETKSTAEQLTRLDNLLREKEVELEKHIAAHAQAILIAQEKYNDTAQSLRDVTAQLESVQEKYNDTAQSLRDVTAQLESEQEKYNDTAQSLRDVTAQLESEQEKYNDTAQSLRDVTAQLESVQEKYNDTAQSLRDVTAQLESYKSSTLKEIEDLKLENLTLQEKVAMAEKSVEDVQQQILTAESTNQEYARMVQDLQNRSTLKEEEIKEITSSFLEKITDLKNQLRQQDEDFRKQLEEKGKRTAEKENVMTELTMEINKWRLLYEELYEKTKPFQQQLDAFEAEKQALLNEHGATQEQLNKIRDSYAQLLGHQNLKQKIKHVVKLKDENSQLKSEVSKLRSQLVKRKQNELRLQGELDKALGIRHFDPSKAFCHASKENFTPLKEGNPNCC
Method: Transblotted RHAMM fusion protein was stained with a 1:10,000 dilution of biotin-labelled HA that had been pre-incubated for 1 h with 3 mg/ml BSA (Figure 13A, lane 1) , 3 mg/ml peptide^aa401-411 (lane 2) or 3 mg/ml peptide^aa423-432 (lane 3).
GST-RHAMM fusion protein was electrophoresed on 10% SDS-PAGE and transblotted onto a nitrocellulose membrane. The membrane was cut into 3 strips and each was stained with 1:3000 diluted biotin-labelled HA in the presence of 3 mg/ml BSA, 3 mg/ml peptide^aa401-411 and 3 mg/ml peptide^aa423-432, respectively. The other steps were the same as described in immunoblots.

[1] = Hyaluronan-Sepharose affinity chromatography of peptides; format: binding; conditions: 0.15 M NaCl in PBS; Figure 13B
Method: To further test the inventor's HA-binding motif model, a number of synthetic peptides were prepared and their HA-binding ability was determined using HA-sepharose. A tyrosine residue was added to one end of each synthetic peptide for convenient spectrophotometric quantitation.
HA-Sepharose affinity gel was prepared according to the manufacturer's instruction. […]
Hyaluronan (Sigma) was coupled to AH-Sepharose 4B (Pharmacia) according to the manufacturer's instructions, resulting in an HA-Sepharose gel. Peptides, ordered from Coast Scientific (San Diego) were HPLC purified. These and randomized peptides, whose sequence was generated by computer, were applied to HA-Sepharose in the presence of 0.15 M NaCl in PBS buffer. Unbound peptides were removed by extensive washing with the same buffer. The amounts of peptides applied and that removed were determined by measuring optical density (O.D.) at 214 nm.

K^423L R S Q L V K R K^432 (KLKSQLVKRK) [peptide^aa423-432]
blocking of the binding of biotin-labelled HA to expressed GST-RHAMM fusion protein (GST-RHAMM fusion protein): blocked | binding to HA-Sepharose [1]: efficiently bound
